# From the supplement of paper PMC9170038
# System: MS2 coat protein
# Test: apparent KD of MS2 coat protein; designed switch direction (-1 OFF switch, 1 ON switch): -1; higher = weaker reporter binding
# Summary of the method: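 Designed RNA switches with common flanks were transcribed on Illumina chips by stalled E. coli RNA polymerase and titrated with SNAP-549-labelled MS2 coat protein, from 0.7 or 1.5 nM doubling to 3 µM, in Tris-HCl pH 7.5 buffer with KCl, MgCl2, BSA, DTT, tRNA and Tween-20. Steps lasted 0.8–1.5 h (lowest) to 10–20 min (highest). Titrations ran without input, with 200 uM small-molecule ligand, or with an oligonucleotide input. Normalised cluster fluorescence was curve-fitted, and apparent KD is the per-design median over clusters.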
# [1] = Eterna round: R95, input ligand: FMN 200 uM
# [2] = Eterna round: R95, input ligand: microRNA oligo, concentration not stated
# [3] = Eterna round: R95, input ligand: none
# [4] = input ligand: microRNA oligo, concentration not stated
Sequence,apparent KD of MS2 coat protein (input ligand: FMN 200 uM),apparent KD of MS2 coat protein (input ligand: none),apparent KD of MS2 coat protein [1],apparent KD of MS2 coat protein [2],apparent KD of MS2 coat protein [3],apparent KD of MS2 coat protein [4]
"AAAUUGGUAGAGGAUAUCGCACAGGAAACACUGCGAGAAGGCUGCACAUGAGGAUCACCCAUGUUCAGUUGCGA [EX6 #38] (Eterna round: R97, puzzle: Exclusion 6)",16.7 nM,14.8 nM,,,,
"UUUAAUUUUUUUUUUUUACAAGCUUUUUGCUCGUCUUAUACAUGAGGAUCACCCAUGUGGGUGAAAGAUAAAUUAUC [JMF 5] (puzzle: Sensor v3, turn-off variant 2)",,,54.9 nM,19.2 nM,37.6 nM,
"AGCUGUGGCCGAGGAUAUGACAUGAGGAUCACCCAUGUACACGAUUAGGCCUGGUAACAGGCUCAUCAGAAGGCGGUCUCAGCA [Eli eng2 - 017] (Eterna round: R96, puzzle: Exclusion NG 2)",9.77 nM,13 nM,,,,10.4 nM
"AGAUUACAUGAGGAUCACCCAUGUCAGGAUAUCGACUGAACAGCUUCGGCUGUUCAGUCGAGAAGGGACAAUUA [Brourdxlusion 10 - Jieux - Exclusion 1] (Eterna round: R97, puzzle: Exclusion 1)",122 nM,59.7 nM,,,,
"AAGUACCGUCACGAUAGUGAUGGUACAACAGGCAAAUGUACAUGAGGAUCACCCAUGUCCUCUUUUGCUCGUCUUGU [Sensor 3 - 35] (puzzle: Sensor v3, turn-off variant 2)",,,94.2 nM,34 nM,114 nM,
"AAAGUGGGCCAGAACAUGAGGAUCACCCAUGUCUGAAAUAGCAAGGAUAUUACGAGCAAAAGGAGUAAGAAGGUGCACAGUACG [Eternabot solution 41] (Eterna round: R96, puzzle: Exclusion NG 3)",24 nM,23.6 nM,,,,15.4 nM
"ACAAGCUUAAUCUGUAUGAACAUGAGGAUCACCCAUGUAAAAGGGAAUACUUUUGGGUUUUUUAUAGCUCGUCUUAU [JR_STOV1_Sub019] (Eterna round: R97, puzzle: Sensor, turn-off variant 1)",52 nM,49.5 nM,,,,
"AUAAGUGAUAAGGAUAUUACUAGCUUCGGCUAGUGAGAAGGUAUCACAUGAGGAUCACCCAUGUGUUCCAAUAA [Ex6/7-B1] (Eterna round: R97, puzzle: Exclusion 6)",270 nM,119 nM,,,,
AUGAAAGUAGGAUAUCGACUGAUUGACAUGAGGAUCACCCAUGUGGUUCUGUGCGGUGUUCGAGAAGGGCUAAGAU [Mageer] (puzzle: Exclusion 5),,,23.1 nM,15.7 nM,20.9 nM,
"AGAGAAUACUCAGGAUAUCGGAAUAGAAAGAGACGAGAAGGGAGACAUGAGGAUCACCCAUGUGAAGUCUUGAGGCUGCAUGGA [Prohibition 26 - Jieux - Exclusion NG 1] (Eterna round: R96, puzzle: Exclusion NG 1)",197 nM,165 nM,,,,122 nM
"AUAAGCUUUUAAAUCCUUAACAUGAGGAUCACCCAUGUUCGUCUUAUGAUGGUCUGAUCCCUGAGGAUCGGACCGUU [JL-sv1-2.03 Brourd Mod] (puzzle: Sensor v3, turn-off variant 1)",,,29.2 nM,95 nM,30.9 nM,
"CUGAGCAGACGAAGAUCCAACAUGAGGAUCACCCAUGUCUCAAAAGCUUUUUGCUCGUCUUAUCCUUCUCUGUUCUC [Reisedzaqu] (puzzle: Sensor v3, turn-off variant 1)",,,16 nM,176 nM,13 nM,
CUUCGUAUAGAGGAUAUAGGAUACUGCGGUGUCCUAGAAGGCUGUACAUGAGGAUCACCCAUGUACUUCAGAUC [Exclusion 6 - B - 14:c] (puzzle: Exclusion 6),,,,12 nM,,
"GCACUGGCAGGAUAUACAUGAGGAUCACCCAUGUGAUCCCUUAGGUACAAAAGUACUAGUAGAAGGGCCUGUGC [Omei Ex3 Model Bachelor's Dilema v48] (Eterna round: R97, puzzle: Exclusion 3)",294 nM,968 nM,,,,
GGUUGGCGAGGAUAUACAUGAGGAUCACCCAUGUCAGAGAAAAAAGUGAGGAAGAAAAGUAGAAGGCGCUGACG [salish99_ex3_r3_017] (puzzle: Exclusion 3),,,199 nM,210 nM,118 nM,
"GACUAAACACGAGGAUAUGCCUGGGAAGAACAGGCAGAAGGCGUGACAUGAGGAUCACCCAUGUAGCCGGGCUAUUCUCGUGUG [Orlaes] (Eterna round: R96, puzzle: Exclusion NG 1)",35.4 nM,29.3 nM,,,,20.8 nM
GCAGGAUAAGUCAGGAUAUACCUAUGGAUACAUAGGUAGAAGGGACAUGAGGAUCACCCAUGUGACUCGCCUGC [Fiskers BMX 4 - 73] (puzzle: Brourd's mod of Exclusion 4),,,,27.6 nM,,
AGAAGACAUGAGGAUCACCCAUGUAAGGAUAUCGGAGGUAAGGGAGGAAGGAGAUAGGCGAGAAGGUACAGGUG [JR_Exclu1_Sub093] (puzzle: Exclusion 1),,,39 nM,53.1 nM,51.7 nM,

Sequence,apparent KD of MS2 coat protein (input ligand: FMN 200 uM),apparent KD of MS2 coat protein (input ligand: none),apparent KD of MS2 coat protein [1],apparent KD of MS2 coat protein [2],apparent KD of MS2 coat protein [3],apparent KD of MS2 coat protein [4]
"GAUUAUGCGAGCUUUAGGGACAUGAGGAUCACCCAUGUUCGUCUUAUUGGUCUGGAUGCACUAACAUACCUAAAUCU [JMF 28] (puzzle: Sensor v3, turn-off variant 1)",,,22.4 nM,30.4 nM,24 nM,
"AAUAACGAGCCGGUCCUCCACAUGAGGAUCACCCAUGUGUUCGUCUUGUAAAGUACUAUCACGAAAGUGAUAGUACA [mod jandersonlee2] (Eterna round: R97, puzzle: Sensor, turn-off variant 1)",746 nM,858 nM,,,,
"CCCUCACUUGAGGAUCACCCAAGUCAGGAUAUCUCCCACCCGGCAACAACCGGGUGCCAGAGAAGGGACUCAAA [Xemaques] (Eterna round: R97, puzzle: Exclusion 1)",17.9 nM,17 nM,,,,
CUUCGUUGUAAGGAUAUCCAGACUCUUCCUGUCGGAGAAGGUACAACAUGAGGAUCACCCAUGUUGCUACAUGG [Zaaqu] (puzzle: Exclusion 6),,,,21.6 nM,,
"AAUAAUGAACGAGCUUUUUACAUGAGGAUCACCCAUGUCCUCUGCUCGUCUUGUCUUGGGCUUUUUUUGGGUUCGGG [-22.1, -44.7 kcal, A 17%] (Eterna round: R97, puzzle: Sensor, turn-off variant 1)",331 nM,338 nM,,,,
ACGUGACAUGAGGAUCACCCAUGUGAGGAUAUCUGGAUAAUUUUUAUUUUAGAUAUCCAGAGAAGGCACAUGUU [Ex1-3: 1Z] (puzzle: Exclusion 1),,,,188 nM,,
"CAUGAUUGGGAAGGAUAUUGACCUAGUUAGCGCCGAGAAGGUCCCUGUCACAUGAGGAUCACCCAUGUGAAUCUGGUGUUCGAG [Ex NG1 #94] (Eterna round: R96, puzzle: Exclusion NG 1)",36.7 nM,19.7 nM,,,,17.9 nM
AAGAAACAUGAGGAUCACCCAUGUGAGGAUAUGAAAAAUAAAAUAAAAGAAAUAAUAAUCAGAAGGCACAAAGG [Mat - Mod of Hog D8] (puzzle: Exclusion 1),,,44.5 nM,36.1 nM,30.5 nM,
GAGGCUAAAGGAUAUACAUGAGGAUCACCCAUGUGGAGGAAGGUUAGAUGAGGAGAAGGUAGAAGGUUAGGCGA [JR_Exclu3_Sub093] (puzzle: Exclusion 3),,,29.7 nM,23.6 nM,28.6 nM,
"UGCAGACGAGGAUAUAAAUGAUAUAACAUGAGGAUCACCCAUGUACGAUCGAAUGAUCGUUUAGAAGGCGUCUGCA [E5/11-A2] (Eterna round: R97, puzzle: Exclusion 5)",18.5 nM,17.4 nM,,,,
"AUAAAAGCAGGAUAUGCGCGGUGUGAUGCCGCAUGCUCGUCACAUGAGGAUCACCCAUGUAGAAGGGCUAAAUG [Diramadidi] (Eterna round: R97, puzzle: Exclusion 2)",19.3 nM,15.6 nM,,,,
AGGUGACAUGAGGAUCACCCAUGUGAGGAUAUCUGGAUACUCUUUAUUUUAGAUAUCCAGAGAAGGCACACCCU [Ex1-3: 8Z] (puzzle: Exclusion 1),,,,235 nM,,
"ACAUGUAAUGUAGGAUAUUUUACACAUGAGGAUCACCCAUGUGACCAGAGGCAUUGCUAUGAGUAAAAGAAGGGUAUGUACAUG [Ex NG2 #58] (Eterna round: R96, puzzle: Exclusion NG 2)",47 nM,42.3 nM,,,,27.8 nM
"CGUCCGAACUCAGGAUAUCAACUUAACAACAUGAGGAUCACCCAUGUGGCCUGUAAAACCCGAGAUGAGAAGGGAGGGCGGGCC [Usceondiat] (Eterna round: R96, puzzle: Exclusion NG 2)",13.6 nM,19.7 nM,,,,15.4 nM
"UACUUCUGAGGAUAUACAUGAGGAUCACCCAUGUUGAUACCGACCUAAAGUCCAUUACGUAGAAGGCAGCAGUG [Eternabot (L1) Solution 91] (Eterna round: R97, puzzle: Exclusion 3)",35.4 nM,23.6 nM,,,,
UCGGCGCGAGGAUAUACGUUUGCUUUUUUUUGUUUUUGUGUACAUGAGGAUCACCCAUGUAGAAGGCGCGCCGC [Apr-15 SS2-21] (puzzle: Exclusion 2),,,,22 nM,,
"AUUUAAUUUAGCGAGAUCACAUGAGGAUCACCCAUGUAUAUAUAGGAUAUCAGCUCGAAUAGAGCUGAGAAGGAUAUAUACCGC [ExNG3/7-A4] (Eterna round: R96, puzzle: Exclusion NG 3)",,,,,,76.7 nM
